The test addresses Gal4-16.4.1 fusion protein (pBIND-16.4.1) (human). In words: two-hybrid.

“VP16-Rev fusion protein (pACT-Rev) (from UniProt P04618 1-116) (natural protein)” came in with a fold induction of luciferase activity of 11 fold.
In turn, “VP16-hCRM1 fusion protein (pACT-hCRM1) (from UniProt O14980 1-1071) (natural protein)” displayed an other of 41 fold.

For the origin of these results see article PMC1097722.
